Data reported in US20130089544A1 (AstraZeneca / MedImmune, published 2013).
Where a chain is given by its changes, count along the chain named.

B1: monoclonal antibody 1.100.1 (antibody, V domains shown)
VH: EVQLVESGGGLVKPGGSLRLSCAASGFTFSSYSMNWVRQAPGKGLEWVSSISSSSSYIYYADSVKGRFTISRDNAKNSLYLQMNSLRAEDTAVYYCARGGDGYNYYYFDYWGQGTLVTVSS
VL: DIVMTQSPDSLAVSLGERATITCKSSQSVFFRSNNKNCLAWYQQRPGQPPNLLIYWASTRESGVPDRFSGSGCGTDFTLTISSLQAEDVAVYYCQQYFGSPFTFGPGTKVDIK
notes: Fully human IgG (gamma/kappa) from a XenoMouse XM3B-3 hybridoma; constant regions not tied to it; also called 1.100.2; 1.100.3
B2: monoclonal antibody 1.14.1 (antibody, V domains shown)
VH: B1 VH
VL: B1 VL with A40T, C73S, S82N, S83N
notes: Fully human IgG (gamma/kappa) from a XenoMouse XM3B-3 hybridoma; constant regions not tied to it
B3: monoclonal antibody 1.18.1 (antibody, V domains shown)
VH: B1 VH with R87S, Y95S
VL: B1 VL with D9G, A12V, P49S, C73S
notes: as for B2
B4: monoclonal antibody 1.39 (antibody, V domains shown)
VH: B1 VH
VL: B1 VL with T59S, C73S, T78A, A86T
notes: Fully human IgG (gamma/kappa) from a XenoMouse XM3B-3 hybridoma; constant regions not tied to it; also called 1.39.1; 1.39.2

What follows are binders tested against T1, human ErbB2, full length, on cells (human, UniProt P04626 23-1255) (assay: cell-based or functional assay).

Question: What does the source list for B1?
Answer: 1 hr pTyr inhibition % (Heregulin-induced ErbB2 phosphorylation in MCF7 cells, hybridoma supernatant): 95%; 24 hr pTyr inhibition % (Heregulin-induced ErbB2 phosphorylation in MCF7 cells, hybridoma supernatant): 95%

Question: B2 was tested. Which “1 hr pTyr inhibition % (Heregulin-induced ErbB2 phosphorylation in MCF7 cells, hybridoma supernatant)” value did it give?
Answer: 103%

Question: What about the “24 hr pTyr inhibition % (Heregulin-induced ErbB2 phosphorylation in MCF7 cells, hybridoma supernatant)” value of the same binder?
Answer: 100%

Question: Which “1 hr pTyr inhibition % (Heregulin-induced ErbB2 phosphorylation in MCF7 cells, hybridoma supernatant)” value does the source give for B3 here?
Answer: 85%

Question: And the “24 hr pTyr inhibition % (Heregulin-induced ErbB2 phosphorylation in MCF7 cells, hybridoma supernatant)” value?
Answer: 96%

Question: What does the source list for B4?
Answer: 1 hr pTyr inhibition % (Heregulin-induced ErbB2 phosphorylation in MCF7 cells, hybridoma supernatant): 82%; 24 hr pTyr inhibition % (Heregulin-induced ErbB2 phosphorylation in MCF7 cells, hybridoma supernatant): 99%

Target: T1, human ErbB2, full length, on cells
Test: cell-based or functional assay
Remark: another data set of the same source

Question: With B1 as the binder, how does the “EC50 (ng/ml) n1, inhibition of Heregulin-induced ErbB2 phosphorylation in MCF7 cells” value (“EC50 (ng/ml) n1, inhibition” for short) read?
Answer: 39.9 ng/mL

Question: And the “EC50 (ng/ml) n2, inhibition of Heregulin-induced ErbB2 phosphorylation in MCF7 cells” value (from here on “EC50 (ng/ml) n2, inhibition”)?
Answer: 33.7 ng/mL

Question: With B2 as the binder, how does the “EC50 (ng/ml) n1, inhibition” value read?
Answer: 33.7 ng/mL

Question: And the “EC50 (ng/ml) n2, inhibition” value?
Answer: 22.9 ng/mL

Question: How did the “EC50 (ng/ml) n1, inhibition” value turn out when B3 was run?
Answer: 4.2 ng/mL

Question: What about the “EC50 (ng/ml) n2, inhibition” value of the same binder?
Answer: 10.8 ng/mL

Question: What does the source list for B4?
Answer: EC50 (ng/ml) n1, inhibition of Heregulin-induced ErbB2 phosphorylation in MCF7 cells: 46.9 ng/mL; EC50 (ng/ml) n2, inhibition of Heregulin-induced ErbB2 phosphorylation in MCF7 cells: 26.3 ng/mL

Target: T1, human ErbB2, full length, on cells
Test: cell-based or functional assay
Remark: another data set of the same source

Question: Which results are given for B1?
Answer: % Inhibition @10 µg/ml, Heregulin-induced MCF7 cell proliferation: 95%; EC50 (ng/ml), inhibition of Heregulin-induced MCF7 cell proliferation: 2040 ng/mL

Question: What does the source list for B2?
Answer: % Inhibition @10 µg/ml, Heregulin-induced MCF7 cell proliferation: 96%; EC50 (ng/ml), inhibition of Heregulin-induced MCF7 cell proliferation: 640 ng/mL

Question: Which “% Inhibition @10 µg/ml, Heregulin-induced MCF7 cell proliferation” value does the source give for B3 here?
Answer: 94%

Question: And the “EC50 (ng/ml), inhibition of Heregulin-induced MCF7 cell proliferation” value?
Answer: 415 ng/mL

Question: Which “% Inhibition @10 µg/ml, Heregulin-induced MCF7 cell proliferation” value does the source give for B4 here?
Answer: 89%

Question: And the “EC50 (ng/ml), inhibition of Heregulin-induced MCF7 cell proliferation” value?
Answer: 479 ng/mL

Target: T1, human ErbB2, full length, on cells
Test: cell-based or functional assay
Remark: another data set of the same source

Question: What does the source list for B1?
Answer: N1 % Inhibition @40 µg/ml, BT474 cell proliferation: 35%; N1 EC50 (ng/ml), inhibition of BT474 cell proliferation: 169 ng/mL; N2 % Inhibition @40 µg/ml, BT474 cell proliferation: 32%; N2 EC50 (ng/ml), inhibition of BT474 cell proliferation: 91.1 ng/mL

Question: What does the source list for B2?
Answer: N1 % Inhibition @40 µg/ml, BT474 cell proliferation: 38%; N1 EC50 (ng/ml), inhibition of BT474 cell proliferation: 136 ng/mL; N2 % Inhibition @40 µg/ml, BT474 cell proliferation: 39%; N2 EC50 (ng/ml), inhibition of BT474 cell proliferation: 63 ng/mL

Question: For B3, which “N1 % Inhibition @40 µg/ml, BT474 cell proliferation” value is on record?
Answer: 34%

Question: And the “N1 EC50 (ng/ml), inhibition of BT474 cell proliferation” value?
Answer: 38.1 ng/mL

Question: And the “N2 % Inhibition @40 µg/ml, BT474 cell proliferation” value?
Answer: 39%

Question: And the “N2 EC50 (ng/ml), inhibition of BT474 cell proliferation” value?
Answer: 28.2 ng/mL

Question: What does the source list for B4?
Answer: N1 % Inhibition @40 µg/ml, BT474 cell proliferation: 29%; N1 EC50 (ng/ml), inhibition of BT474 cell proliferation: 156 ng/mL; N2 % Inhibition @40 µg/ml, BT474 cell proliferation: 40%; N2 EC50 (ng/ml), inhibition of BT474 cell proliferation: 42.3 ng/mL

Target: T1, human ErbB2, full length, on cells
Test: cell-based or functional assay
Remark: another data set of the same source

Question: What does the source list for B1?
Answer: % inhibition @36 µg/ml, SKBR3 cell proliferation: 54%; EC50 (ng/ml), inhibition of SKBR3 cell proliferation: 61.3 ng/mL

Question: Which “% inhibition @36 µg/ml, SKBR3 cell proliferation” value (from here on “% inhibition @36 µg/ml”) does the source give for B2 here?
Answer: 52%

Question: And the “EC50 (ng/ml), inhibition of SKBR3 cell proliferation” value?
Answer: 35.7 ng/mL

Question: With B3 as the binder, how does the “% inhibition @36 µg/ml” value read?
Answer: 46%

Question: What about the “EC50 (ng/ml), inhibition of SKBR3 cell proliferation” value of the same binder?
Answer: 26.3 ng/mL

Question: How did the “% inhibition @36 µg/ml” value turn out when B4 was run?
Answer: 41%

Question: And the “EC50 (ng/ml), inhibition of SKBR3 cell proliferation” value?
Answer: 68.9 ng/mL

Target: T1, human ErbB2, full length, on cells
Test: cell-based or functional assay
Remark: another data set of the same source

Question: What does the source list for B1?
Answer: % Inhibition @10 µg/ml (n1), ErbB2 phosphorylation in BT474 cells at 48 hours: 37%; % Inhibition @10 µg/ml (n2), ErbB2 phosphorylation in BT474 cells at 48 hours: 26%

Question: What does the source list for B2?
Answer: % Inhibition @10 µg/ml (n1), ErbB2 phosphorylation in BT474 cells at 48 hours: 37%; % Inhibition @10 µg/ml (n2), ErbB2 phosphorylation in BT474 cells at 48 hours: 45%

Question: B3 was tested. Which “% Inhibition @10 µg/ml (n1), ErbB2 phosphorylation in BT474 cells at 48 hours” value did it give?
Answer: 24%

Question: What about the “% Inhibition @10 µg/ml (n2), ErbB2 phosphorylation in BT474 cells at 48 hours” value of the same binder?
Answer: 33%

Question: B4 was tested. Which “% Inhibition @10 µg/ml (n1), ErbB2 phosphorylation in BT474 cells at 48 hours” value did it give?
Answer: 37%

Question: What about the “% Inhibition @10 µg/ml (n2), ErbB2 phosphorylation in BT474 cells at 48 hours” value of the same binder?
Answer: 26%

The binders below were run against T2, human ErbB2 ECD-myc/His fusion protein (human, UniProt P04626 23-652) (assay: limited antigen ELISA, 31 ng/ml ErbB2 ECD-myc/His coated, supernatant 1:25).
T2 construct: Made in-house in 293T cells; also called hErbB2(ECD)/cMyc-His; huErbB2 (ECD)/c-myc-His; not shown: c-myc/His tag of the pSecTag2Hygro vector
Protocol: […] […] Antigen-coated plates were washed three times, blocked with 1% non-fat skim milk/PBS for at least 30 minutes at room temperature, and then washed again three times. Each hybridoma line sample was titrated in 1% non-fat skim-milk/PBS 1:3 for 7 points starting from a 1:25 dilution. […] The next day, plates were washed three times and incubated with 50 μl of 400 ng/ml immunopure Goat anti-human IgG (Fc)-HRP (Pierce catalog #31416) for 1 hour at room temperature. Then, the plates were extensively washed and pat dried on paper towel to remove residual HRP in wells. HRP substrate TMB (enhanced K-blue TMB, Neogen catalog #308177) was added to each well and incubated for 30 min. The reaction was stopped by addition of 1N HCl. Optical density at 450 nm was read on a microplate reader (Titerteck Multiskan Ascent).

Question: For B1, which “LA at 31 ng/ml (OD)” value is on record?
Answer: 3.54 OD 450 nm

Question: With B2 as the binder, how does the “LA at 31 ng/ml (OD)” value read?
Answer: 3.99 OD 450 nm

Question: For B3, which “LA at 31 ng/ml (OD)” value is on record?
Answer: 3.03 OD 450 nm

Question: How did the “LA at 31 ng/ml (OD)” value turn out when B4 was run?
Answer: 2.57 OD 450 nm

The binders below were run against T2, human ErbB2 ECD-myc/His fusion protein (assay: SPR, Biacore T100 high resolution; mAb captured on goat anti-human IgG, hHer-2(ECD)cMyc injected; 1:1 fit).
Protocol: All experiments were performed using a Biacore T100 instrument. First, a high-density goat α human IgG antibody (Caltag H10500) surface was prepared over two CM5 Biacore chips using routine amine coupling. Each mAb was diluted in HBS-P running buffer containing 100 μg/ml Bovine serum albumin (BSA).
A capture level protocol was developed for all five mAbs. Before each antigen injection cycle, each mAb was captured for 15 to 30 seconds at a 20 μL/min flow rate. A 5-minute wash step followed each capture injection to stabilize each mAb baseline. […] The samples were prepared in the running buffer described above. All samples were randomly injected with several mAb capture/buffer inject cycles interspersed for double referencing. […] A flow rate of 50 μL/min. was used for all injection cycles.
All sensorgram data were fit to a 1:1 interaction model using CLAMP.

Question: What does the source list for B4?
Answer: Kd: 13.4 nM; koff: 0.000214 s⁻¹; kon: 16000 M⁻¹ s⁻¹

These binders were tested against T2, human ErbB2 ECD-myc/His fusion protein (assay: SPR, Biacore 2000 medium resolution; mAb captured on goat anti-human IgG, ErbB2(ECD)-cMyc/His injected; 1:1 fit).
Protocol: The binding affinity of eight of the anti-ErbB2 antibodies was measured by medium resolution Biacore. All experiments were performed using a Biacore 2000 instrument.
First, 12 high-density goat α-human IgG antibody surfaces over three CM5 Biacore chips were prepared using routine amine coupling. […] Before each antigen injection cycle, each mAb was captured for six to nine seconds at a 100 μL/min flow rate. A 2-minute wash step followed each capture injection to stabilize each mAb baseline. […] All samples were randomly injected with several mAb capture/buffer inject cycles interspersed for double referencing. […] A flow rate of 100 μL/min. was used for all injection cycles. The data was fit to a 1:1 interaction model using CLAMP.

Question: For B1, which Kd is on record?
Answer: 2.9 nM

Question: What about the koff of the same binder?
Answer: 0.000301 s⁻¹

Question: And the kon?
Answer: 104000 M⁻¹ s⁻¹

Question: For B2, which Kd is on record?
Answer: 2.5 nM

Question: What about the koff of the same binder?
Answer: 0.000256 s⁻¹

Question: And the kon?
Answer: 102000 M⁻¹ s⁻¹

Question: B3 was tested. Which Kd did it give?
Answer: 3 nM

Question: What about the koff of the same binder?
Answer: 0.000302 s⁻¹

Question: And the kon?
Answer: 100000 M⁻¹ s⁻¹

Question: Which Kd does the source give for B4 here?
Answer: 2 nM

Question: And the koff?
Answer: 0.000236 s⁻¹

Question: What about the kon of the same binder?
Answer: 115000 M⁻¹ s⁻¹
